Measurements from PMC8828901, “Sox9 is involved in the thyroid differentiation program and is regulated by crosstalk between TSH, TGFβ and thyroid transcription factors”.

Legend:
CREB (TNT-CREB) = CREB (TNT-CREB) (UniProt P16220 1-327); assay: EMSA; specific; 40 mM Hepes pH 7.9, 75 mM KCl, 0.2 mM EDTA, 0.5 mM DTT, 150 ng/ul poly(dI-dC), 5% Ficoll, room temperature, 30 min; 7 ug TNT protein; competitor 100-fold or 50-fold (Methods); settings: protein: ivt; chain copies: 2; label: 32P; blunt
Smad3 (TNT-Smad3) = Smad3 (TNT-Smad3) (UniProt P84022 1-425); assay: as above; settings: protein: ivt; label: 32P; blunt
Chain of Smad3 (TNT-Smad3) (P84022 whole entry): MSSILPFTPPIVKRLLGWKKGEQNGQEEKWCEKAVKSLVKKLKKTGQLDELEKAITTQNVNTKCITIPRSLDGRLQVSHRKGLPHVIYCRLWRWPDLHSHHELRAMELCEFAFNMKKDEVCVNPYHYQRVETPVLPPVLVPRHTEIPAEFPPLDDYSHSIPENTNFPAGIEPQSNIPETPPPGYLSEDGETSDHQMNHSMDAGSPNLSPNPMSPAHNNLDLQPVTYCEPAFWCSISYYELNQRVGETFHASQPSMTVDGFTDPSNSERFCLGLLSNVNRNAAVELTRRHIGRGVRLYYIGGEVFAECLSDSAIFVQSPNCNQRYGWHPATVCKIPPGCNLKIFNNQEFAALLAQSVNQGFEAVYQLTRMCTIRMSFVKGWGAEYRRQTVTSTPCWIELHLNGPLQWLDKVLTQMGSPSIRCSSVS

Chain of CREB (TNT-CREB) (P16220 whole entry): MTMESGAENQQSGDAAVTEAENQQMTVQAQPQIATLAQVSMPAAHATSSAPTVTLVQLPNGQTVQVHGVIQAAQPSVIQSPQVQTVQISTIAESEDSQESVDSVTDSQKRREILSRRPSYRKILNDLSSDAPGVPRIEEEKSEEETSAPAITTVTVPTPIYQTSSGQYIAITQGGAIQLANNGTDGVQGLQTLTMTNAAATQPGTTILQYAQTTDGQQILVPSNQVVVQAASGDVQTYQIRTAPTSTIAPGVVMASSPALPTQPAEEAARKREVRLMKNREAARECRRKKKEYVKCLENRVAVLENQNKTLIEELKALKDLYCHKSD

Row | Binder | binding result (CREB (TNT-CREB)) | binding result (Smad3 (TNT-Smad3))
1 | Sox9 promoter CRE (dsDNA) DNA 1: CCTCGAGTCTCGTCACCCA DNA 2: TGGGTGACGAGACTCGAGG | binds | 
2 | Sox9 promoter Smad site (dsDNA) DNA 1: CTCGGAACTGTCTGGAAACTTCAG DNA 2: CTGAAGTTTCCAGACAGTTCCGAG |  | binds
